Measured values as given in paper PMC8534798, “Foxd4l1.1 Negatively Regulates Chordin Transcription in Neuroectoderm of Xenopus Gastrula” (Cells, 2021).

How the values were obtained:
HA-Smad2 (wild type) = HA-Smad2 (wild type) (human, UniProt Q15796 1-467); test: cell-based or functional assay
HA-Smad3 (wild type) = HA-Smad3 (wild type) (human, UniProt P84022 1-425); test: cell-based or functional assay
HA-Smad3 (wild type), sequence (P84022 whole entry): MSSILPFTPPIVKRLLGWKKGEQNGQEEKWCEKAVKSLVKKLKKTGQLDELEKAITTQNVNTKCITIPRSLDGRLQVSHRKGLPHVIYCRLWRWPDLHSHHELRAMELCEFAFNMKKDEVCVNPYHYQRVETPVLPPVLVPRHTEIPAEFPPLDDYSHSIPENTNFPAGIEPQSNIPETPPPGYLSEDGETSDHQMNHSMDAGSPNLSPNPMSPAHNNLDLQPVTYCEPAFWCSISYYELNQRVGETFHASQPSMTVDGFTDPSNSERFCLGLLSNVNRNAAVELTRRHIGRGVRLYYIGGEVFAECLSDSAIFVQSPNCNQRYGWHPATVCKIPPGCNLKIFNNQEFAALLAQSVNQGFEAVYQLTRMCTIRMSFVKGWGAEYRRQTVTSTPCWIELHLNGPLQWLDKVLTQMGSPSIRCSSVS

HA-Smad2 (wild type), sequence (Q15796 whole entry): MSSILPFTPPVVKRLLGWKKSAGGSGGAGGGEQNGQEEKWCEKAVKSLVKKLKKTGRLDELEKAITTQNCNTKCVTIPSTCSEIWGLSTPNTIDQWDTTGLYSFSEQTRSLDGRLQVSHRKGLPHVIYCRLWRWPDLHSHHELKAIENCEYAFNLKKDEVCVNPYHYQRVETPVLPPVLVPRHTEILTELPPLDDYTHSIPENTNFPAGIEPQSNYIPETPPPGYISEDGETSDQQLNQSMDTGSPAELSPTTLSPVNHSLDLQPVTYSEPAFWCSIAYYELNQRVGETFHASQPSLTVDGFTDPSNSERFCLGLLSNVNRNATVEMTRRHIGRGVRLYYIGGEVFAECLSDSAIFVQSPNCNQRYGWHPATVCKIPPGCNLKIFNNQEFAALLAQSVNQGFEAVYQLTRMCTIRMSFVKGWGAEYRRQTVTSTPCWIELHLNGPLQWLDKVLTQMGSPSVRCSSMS

B1: Flag-Foxd4l1.1 (natural protein, Xenopus, UniProt Q9PRJ8 1-352, looked up)
chain: MSFSQESGAHHHPQDYAGLSDEEDEIDILGEDDPCSLKSHFYLQPTHSVMGDSEMLSPSKLSCTESESDSSGESEGGTSKDSSTTPTGSKAKRTLVKPPYSYIALITMAILQSPHKKLTLSGICDFISSKFPYYKDKFPAWQNSIRHNLSLNDCFIKIPREPGNPGKGNYWTLDPASEDMFDNGSFLRRRKRFKRHQQEFFKDGLMMYNSLPYYRPYSAIQPQPVLQQTSLTCMAIPETLPMSTHLAPYPDIKRKVSYPAQGVHRGFKAQDADNHPNNSQSKCSFSIENIMRKPKEPEPNIQSFNSHWNYNHVFQRPSSCLLPAVLNLSTGPLLANTQGARQYNLIQFPGCY
For B1, the “ChIP-qPCR: occupancy of HA-Smad2 on the AREs of the chrd promoter without and with co-injected Flag-Foxd4l1.1 (fold enrichment)” value (HA-Smad2 (wild type)) was 7.3 fold and the “ChIP-qPCR: occupancy of HA-Smad3 on the AREs of the chrd promoter without and with co-injected Flag-Foxd4l1.1 (fold enrichment)” value (HA-Smad3 (wild type)) was 4.02 fold.
